This passage reports average particle size results from patent US20250163223A1, “HYDROGEL INCLUSION COMPLEX INCLUDING PHYSIOLOGICALLY ACTIVE MATERIAL BOUND TO THERMOSENSITIVE POLY(PHOSPHAZENE) BY HOST-GUEST INTERACTION USING BETA-CYCLODEXTRIN AND USE THEREOF” (KOREA INSTITUTE OF SCIENCE AND TECHNOLOGY, priority 2019, published 2025).

This data set can be described thus: Dynamic light scattering (DLS) particle size in aqueous environment. The format is physicochemical. From the text: In this example, it was hypothesized that binding affinity between β-CD and Ad-RGD would induce the well-controlled guest molecule amount through the Ad-RGDs inserted at different amounts with one another. First of all, β-CD PPZ and β-CD PPZ+Ad-RGD gave different results from measurement of dynamic light scattering (DLS). […] As Ad-RGDs were included in β-CD PPZ, the practical size of aqueous particles of β-CD PPZ+Ad-RGD was increased.
Further, to identify whether Ad-peptides were stoichiometrically and accurately inserted into the host molecules, dynamic light scattering (DLS) measurement was performed by mixing host molecules and guest molecules such that the ratio of host molecule: guest molecule was 1:1, 1:1.2, and 0:1. […] In this DLS result of the conjugate in which the ratio of host molecule:guest molecule was 1:1, any peaks involved in guest molecules alone were not shown (C of FIG. 17). It means that there were no guest molecules separated from β-CD PPZ. […] This means that all of the Ad-peptides were incorporated into the conjugates of β-CD PPZ and Ad-peptide (host molecule:guest molecule=1:1) in the aqueous environment. On the other hand, it was confirmed that when Ad-peptides was excessively mixed with β-CD PPZ (host molecule: guest molecule=1:1.2), the surplus Ad-peptides formed their own other peaks analogous to those of Ad-TGF and Ad-HAV alone (FIG. 18). […]

Ends that are not written are not given here. PEG = not defined here

With “adamantane-PEG-CESPLKRQ ({adamantane-PEG}-CESPLKRQ; reading uncertain) [Ad-TGF, TGF-β1 mimic peptide linked to adamantane via PEG]”, the average particle size was 353.63±31.71 nm.
Substance “adamantane-PEG-CLRAHAVDIN ({adamantane-PEG}-CLRAHAVDIN; not fully specified; reading uncertain) [Ad-HAV, N-cadherin mimic peptide linked to adamantane via PEG]” displayed an average particle size of 460.78±49.53 nm.
